Among the data in paper PMC6181439 are Kd and koff values, retold here.

The test addresses Recombinant mouse PrP lacking FT (90-230) (mouse) (UniProt P04925). Nature of the test: SPR. As to conditions: bispecific antibody.

For the substance “scPOM-bi, POM1-POM2 bispecific single chain antibody”, the Kd came out at 3.6 nM and the dissociation rate constant (koff) was determined as 0.00031 s⁻¹.

As a reminder, the Kd is the concentration at which binding is half-saturated. A word on the koff: it is the rate constant with which the complex falls apart.
